1 molecule from PMC9581579 (2022) can be followed below.

The target in test [1] is T1, His-Avi-Trx-Frmpd1-pept (Frmpd1 residues 895–938) (UniProt A2AKB4 895-938, not fully specified; biotin (biotinylated in E. coli by native BirA ligase)).
T1 chain: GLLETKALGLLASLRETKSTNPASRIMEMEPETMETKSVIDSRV
In words: BLI; in the presence of Gαt*.

Test [2] deals with T1, His-Avi-Trx-Frmpd1-pept (Frmpd1 …). In words: BLI.

B1: HMT-Gpsm2 (His6-MBP-TEV site-Gpsm2) (natural protein)
chain: MEENLISMREDHSFHVRYRMEASCLELALEGERLCKSGDCRAGVSFFEAAVQVGTEDLKTLSAIYSQLGNAYFYLHDYAKALEYHHHDLTLARTIGDQLGEAKASGNLGNTLKVLGNFDEAIVCCQRHLDISRELNDKVGEARALYNLGNVYHAKGKSFGCPGPQDVGEFPEEVRDALQAAVDFYEENLSLVTALGDRAAQGRAFGNLGNTHYLLGNFRDAVIAHEQRLLIAKEFGDKAAERRAYSNLGNAYIFLGEFETASEYYKKTLLLARQLKDRAVEAQSCYSLGNTYTLLQDYEKAIDYHLKHLAIAQELNDRIGEGRACWSLGNAYTALGNHDQAMHFAEKHLEISREVGDKSGELTARLNLSDLQMVLGLSYSTNNSIMSENTEIDSSLNGVRPKLGRRHSMENMELMKLTPEKVQNWNSEILAKQKPLIAKPSAKLLFVNRLKGKKYKTNSSTKVLQDASNSIDHRIPNSQRKISADTIGDEGFFDLLSRFQSNRMDDQRCCLQEKNCHTASTTTSSTPPKMMLKTSSVPVVSPNTDEFLDLLASSQSRRLDDQRASFSNLPGLRLTQNSQSVLSHLMTNDNKEADEDFFDILVKCQGSRLDDQRCAPPPATTKGPTVPDEDFFSLILRSQGKRMDEQRVLLQRDQNRDTDFGLKDFLQNNALLEFKNSGKKSADH
Regarding B1, the results for the Kd in test [1] and in test [2] were 198 nM and 286 nM, respectively.
